B1: SDGF-TB1G1 (TB1G1 displayed on 293F cells) [designed binder] / Biotinylated His-Avi-TEAD1(194–411) [modified: biotin (BirA-500 kit); biotin (BirA-500 kit)] [not stated] (parent complex)
chain 1: PDEYIERAKECCKKGDIQCCLRYFEESGDPNVMLICLFCP
chain 2: RSIGTTKLRLVEFSAFLEQQRDPDSYNKHLFVHIGHANHSYSDPLLESVDIRQIYDKFPEKKGGLKELFGKGPQNAFFLVKFWADLNCNIQDDAGAFYGVTSQYESSENMTVTCSTKVCSFGKQVVEKVETEYARFENGRFVYRINRSPMCEYMINFIHKLKHLPEKYMMNSVLENFTILLVVTNRDTQETLLCMACVFEVSNSEHGAQHHIYRLVKD

The assay covers variants of B1. Nature of the assay: mammalian (293F) surface display of a site-saturation mutagenesis library (every non-Cys single substitution), FACS sorting on biotinylated TEAD1 YBD, two sorting rounds, Illumina sequencing with perfect-match mapping; 20 nM biotinylated TEAD, monovalent 2-step stain (TEAD alone 30 min at 4 °C, dilute, pellet, then 20 nM streptavidin-Alexa Fluor 647), flow sorting on a BD Aria.
As for chain 1 A8Y, the enrichment is -3.35 log2 (fold change of variant abundance after two TEAD sorts vs input, normalised to TB1G1).

In the case of chain 1 A8W, the enrichment is -5.46 log2 (fold change of variant abundance after two TEAD sorts vs input, normalised to TB1G1).

With chain 1 A8F, the enrichment is -4.33 log2 (fold change of variant abundance after two TEAD sorts vs input, normalised to TB1G1).

With chain 1 K9D, the enrichment was -0.576 log2 (fold change of variant abundance after two TEAD sorts vs input, normalised to TB1G1).

For chain 1 K9H, the enrichment is -1.5 log2 (fold change of variant abundance after two TEAD sorts vs input, normalised to TB1G1).

With chain 1 P1V, the enrichment was -0.595 log2 (fold change of variant abundance after two TEAD sorts vs input, normalised to TB1G1).

chain 1 P1L: the enrichment was -2.9 log2 (fold change of variant abundance after two TEAD sorts vs input, normalised to TB1G1).

As to chain 1 E6D, the enrichment is -0.602 log2 (fold change of variant abundance after two TEAD sorts vs input, normalised to TB1G1).

chain 1 E6K: the enrichment is -1.13 log2 (fold change of variant abundance after two TEAD sorts vs input, normalised to TB1G1).

Turning to chain 1 E6N, the enrichment is -0.816 log2 (fold change of variant abundance after two TEAD sorts vs input, normalised to TB1G1).

chain 1 E6R: the enrichment is -1.78 log2 (fold change of variant abundance after two TEAD sorts vs input, normalised to TB1G1).

Turning to chain 1 E3N, the enrichment was 0.579 log2 (fold change of variant abundance after two TEAD sorts vs input, normalised to TB1G1).

Turning to chain 1 E3W, the enrichment was -1.4 log2 (fold change of variant abundance after two TEAD sorts vs input, normalised to TB1G1).

Turning to chain 1 E3K, the enrichment was -0.5 log2 (fold change of variant abundance after two TEAD sorts vs input, normalised to TB1G1).

As for chain 1 Y4Q, the enrichment is 0.291 log2 (fold change of variant abundance after two TEAD sorts vs input, normalised to TB1G1).

In the case of chain 1 Y4D, the enrichment was -1.79 log2 (fold change of variant abundance after two TEAD sorts vs input, normalised to TB1G1).

For chain 1 Y4L, the enrichment was -1.81 log2 (fold change of variant abundance after two TEAD sorts vs input, normalised to TB1G1).

chain 1 R7E: the enrichment is -0.163 log2 (fold change of variant abundance after two TEAD sorts vs input, normalised to TB1G1).

Regarding chain 1 R7L, the enrichment was -0.388 log2 (fold change of variant abundance after two TEAD sorts vs input, normalised to TB1G1).

Take chain 1 I5S: the enrichment is -2.04 log2 (fold change of variant abundance after two TEAD sorts vs input, normalised to TB1G1).

Take chain 1 I5K: the enrichment was -1.5 log2 (fold change of variant abundance after two TEAD sorts vs input, normalised to TB1G1).

For the variant chain 1 I5A, the enrichment is -1.2 log2 (fold change of variant abundance after two TEAD sorts vs input, normalised to TB1G1).

For chain 1 D2H, the enrichment is -1.05 log2 (fold change of variant abundance after two TEAD sorts vs input, normalised to TB1G1).

chain 1 D2F: the enrichment is -3.41 log2 (fold change of variant abundance after two TEAD sorts vs input, normalised to TB1G1).

As to chain 1 D2T, the enrichment is -0.52 log2 (fold change of variant abundance after two TEAD sorts vs input, normalised to TB1G1).
